According to patent US20250281611A1 (BIOSCEPTRE AUST, published 2025):

Key:
[1] = target: T1, nfP2X7 CAR 1; test: flow cytometry, anti-His-FITC, MFI on EGFR+ (CAR+) over EGFR- (CAR-) T cells
T1 construct: CAR-positive cells gated by the co-expressed EGFR marker; also called nfP2X7 targeted CAR; nfP2X7 CAR on EGFR+ T cells
Procedure: (§1) nfP2X₇ CAR T cells were incubated with different BRiDGE variants at saturating concentrations. […] The MFI intensity correlates with the number of secondary bound antibodies bound to the BRiDGEs that are only detected if they are bound to the CAR T cells. EGFR was used as a marker gene to detect the CAR expression. Thus, the EGFR+ T cell population was defined as the CAR expressing cells and the EGFR− T cell population was defined as the CAR negative subset. MFI: median fluorescence intensity. EGFR: epidermal growth factor receptor. BLItz: Bio-Layer interferometry (BLI) technology using HIS-tag identification tips. HIS-tag MFI Ratio: relative index that is calculated by the testing condition MFI divided by the control MFI, which corresponds to the MFI measured on EGFR+ T cells (defined as CAR positive cells) divided by the MFI measured on the EGFR− T cells (defined as CAR negative cells). […] The higher the MFIR, the stronger the binding.

[2] = target: T2, CD19 (UniProt P15391 20-556, limits assumed); test: flow cytometry, JeKo-1 cells, bridge at saturating conc., BIL03s-AF647 detection
T2 construct: whole, on cells; also called CD19 on JeKo-1
T2 sequence (looked up): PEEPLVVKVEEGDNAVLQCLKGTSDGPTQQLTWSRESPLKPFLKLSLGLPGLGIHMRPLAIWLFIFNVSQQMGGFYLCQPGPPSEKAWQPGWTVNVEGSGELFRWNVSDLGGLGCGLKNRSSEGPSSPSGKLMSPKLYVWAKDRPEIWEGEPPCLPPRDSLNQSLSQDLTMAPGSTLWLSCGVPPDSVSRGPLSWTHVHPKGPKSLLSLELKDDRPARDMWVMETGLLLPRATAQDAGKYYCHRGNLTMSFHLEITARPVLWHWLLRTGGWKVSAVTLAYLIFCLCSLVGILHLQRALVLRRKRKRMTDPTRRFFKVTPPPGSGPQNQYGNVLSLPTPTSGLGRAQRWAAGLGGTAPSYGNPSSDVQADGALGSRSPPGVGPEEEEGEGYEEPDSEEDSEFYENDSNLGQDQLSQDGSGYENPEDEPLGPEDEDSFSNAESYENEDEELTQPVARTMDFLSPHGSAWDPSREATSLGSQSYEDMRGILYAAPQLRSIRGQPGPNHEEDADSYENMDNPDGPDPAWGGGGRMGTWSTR
Procedure: (§2) JeKo-1 cells were incubated with different CD19 BRiDGE variants at saturating concentrations. […] The MFI intensity correlates with the number of secondary bound antibodies bound to the CD19 BRiDGE variants that are only detected if they are bound to the JeKo-1 cells. MFI: median fluorescence intensity. BLitz: Bio-Layer interferometry (BLI) technology using HIS-tag identification tips. […] The higher the MFIR, the stronger the binding.

[3] = target: T2, CD19; test: flow cytometry, JeKo-1 cells, bridge at saturating conc., anti-His-FITC detection
Procedure: as §2

[4] = target: T1, nfP2X7 CAR 1; test: flow cytometry, anti-His-FITC, MFI on EGFR+ (CAR+) T cells over background 0.44
Procedure: as §1

[5] = target: T2, CD19; test: flow cytometry, JeKo-1 cells, anti-His-FITC detection, MFI over no-bridge control
Procedure: as §2

[6] = target: T1, nfP2X7 CAR 1; test: flow cytometry, nfP2X7 CAR 1 T cells (EGFR+ gate), anti-His-FITC detection
Procedure: as §1

[7] = target: T2, CD19; test: flow cytometry, JeKo-1 cells, BIL03s-AF647 detection, MFI over no-bridge control
Procedure: as §2

[8] = target: T3, CD33 (UniProt P20138 18-364, limits assumed); test: flow cytometry, MOLM-13 cells, anti-His-FITC detection
T3 construct: whole, on cells; also called Siglec-3; CD33 on MOLM-13 cells
Procedure: as §2, with “MOLM-13” for “JeKo-1”, “CD33 BRIDGE” for “CD19 BRiDGE”, “secondary” for “secondary bound”, “BLItz:” for “BLitz:”

[9] = target: T3, CD33; test: flow cytometry, MOLM-13 cells, anti-His-FITC detection, ratio to no bridge
Procedure: as §2, with “MOLM-13” for “JeKo-1”, “CD33 BRIDGE” for “CD19 BRiDGE”, “secondary” for “secondary bound”, “BLItz:” for “BLitz:”

[10] = target: T4, nfP2X7 CAR 1; test: flow cytometry, CAR T cells, anti-His-FITC, EGFR+ MFI over background 0.4
T4 construct: Expressed on T cells with truncated EGFR as marker gene; also called anti-nfP2X7 receptor CAR 1; nfP2X7 targeted CAR on EGFR+ T cells
Summary of the method: (§3)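 CAR T cells incubated with BRiDGE variants at saturating concentrations; bound BRiDGE detected with anti-His-FITC by flow cytometry. EGFR marks CAR expression. Value is median fluorescence intensity on EGFR+ (CAR+) cells divided by that on EGFR− (CAR−) cells.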

[11] = target: T4, nfP2X7 CAR 1; test: flow cytometry, CAR T cells, anti-His-FITC, EGFR+ over EGFR- cells
Summary of the method: as §3

[12] = target: T4, nfP2X7 CAR 1; test: flow cytometry, nfP2X7 CAR T cells (EGFR+), anti-His-FITC detection

T3 sequence (P20138 18-364 limits assumed): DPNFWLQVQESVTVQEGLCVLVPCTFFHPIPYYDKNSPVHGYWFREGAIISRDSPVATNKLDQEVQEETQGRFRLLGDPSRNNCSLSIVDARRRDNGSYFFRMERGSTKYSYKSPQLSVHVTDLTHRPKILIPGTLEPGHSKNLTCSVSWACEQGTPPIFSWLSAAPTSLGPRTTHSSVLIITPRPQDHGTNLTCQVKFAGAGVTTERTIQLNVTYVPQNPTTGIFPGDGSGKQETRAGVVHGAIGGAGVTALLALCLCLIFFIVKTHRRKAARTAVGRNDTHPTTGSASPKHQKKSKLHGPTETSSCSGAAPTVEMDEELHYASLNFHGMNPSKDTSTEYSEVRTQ

| Binder | HisTag MFI Ratio of EGFR+/EGFR- [1] | MFI Bil03 AF647 [2] | MFI HisTag FITC [3] | HisTag MFI Ratio (background 0.44) [4] | MFIR HisTag FITC [5] | MFI HisTag FITC in EGFR+ Population [6] | MFIR BIL03 AF647 [7] | MFI HisTag FITC [8] | MFIR HisTag FITC [9] | HisTag MFI Ratio (background 0.4) [10] | HisTag MFI Ratio of EGFR+/EGFR- [11] | MFI HisTag FITC in EGFR+ Population [12] |
| --- | --- | --- | --- | --- | --- | --- | --- | --- | --- | --- | --- | --- |
| CD19 BRIDGE variant B1 (Fab, V domains shown) VH: EVQLVESGGGLVKPGGSLKLSCAASGYTFTSYVMHWVRQAPGKGLEWIGYINPYNDGTKYNEKFQGRVTISSDKSISTAYMELSSLRSEDTAMYYCARGTYYYGTRVFDYWGQGTLVTVSS VL: DIVMTQSPATLSLSPGERATLSCRSSKSLQNVNGNTYLYWFQQKPGQSPQLLIYRMSNLNSGVPDRFSGSGSGTEFTLTISSLEPEDFAVYYCMQHLEYPITFGAGTKLEIKR | 4 | 3.19 | 3.21 | 4.8 | 4.17 | 2.1 | 6.93 |  |  |  |  |  |
| CD19 BRIDGE variant B2 (Fab, V domains shown) VH: EVQLVESGGGLVKPGGSLKLSCAASGYTFTSYVMHWVRQAPGKGLEWIGYINPYNDGTKYNEKFQGRVTISSDKSISTAYMELSSLRSEDTAMYYCARGTYYYGTRVFDYWGQGTLVTVSS VL: DIVMTQSPATLSLSPGERATLSCRSSKSLQNVNGNTYLYWFQQKPGQSPQLLIYRMSNLNSGVPDRFSGSGSGTEFTLTISSLEPEDFAVYYCMQHLEYPITFGAGTKLEIKR | 4.1 | 4.17 | 3.47 | 4.7 | 4.51 | 2.07 | 9.07 |  |  |  |  |  |
| CD19 BRIDGE variant B7 (Fab, V domains shown) VH: EVQLVESGGGLVKPGGSLKLSCAASGYTFTSYVMHWVRQAPGKGLEWIGYINPYNDGTKYNEKFQGRVTISSDKSISTAYMELSSLRSEDTAMYYCARGTYYYGTRVFDYWGQGTLVTVSS VL: DIVMTQSPATLSLSPGERATLSCRSSKSLQNVNGNTYLYWFQQKPGQSPQLLIYRMSNLNSGVPDRFSGSGSGTEFTLTISSLEPEDFAVYYCMQHLEYPITFGAGTKLEIKR | 4 | 7.57 | 3.31 | 5 | 4.3 | 2.22 | 16.5 |  |  |  |  |  |
| CD19 BRIDGE variant B3 (Fab, V domains shown) VH: EVQLVESGGGLVKPGGSLKLSCAASGYTFTSYVMHWVRQAPGKGLEWIGYINPYNDGTKYNEKFQGRVTISSDKSISTAYMELSSLRSEDTAMYYCARGTYYYGTRVFDYWGQGTLVTVSS VL: DIVMTQSPATLSLSPGERATLSCRSSKSLQNVNGNTYLYWFQQKPGQSPQLLIYRMSNLNSGVPDRFSGSGSGTEFTLTISSLEPEDFAVYYCMQHLEYPITFGAGTKLEIKR | 4.1 | 5.43 | 3.63 | 4.7 | 4.71 | 2.05 | 11.8 |  |  |  |  |  |
| CD33 BRIDGE variant B34 (Fab, Lintuzumab-based Fab bridging molecule) light: DFPGHNYTTRNILPGLNITSTFHKTSGSGKEPKSSDKTHTGGGGSDIQMTQSPSSLSASVGDRVTITCRASESVDNYGISFMNWFQQKPGKAPKLLIYAASNQGSGVPSRFSGSGSGTDFTLTISSLQPDDFATYYCQQSKEVPWTFGQGTKVEIKRTVAAPSVFIFPPSDEQLKSGTASVVCLLNNFYPREAKVQWKVDNALQSGNSQESVTEQDSKDSTYSLSSTLTLSKADYEKHKVYACEVTHQGLSSPVTKSFNRGECHHHHHH heavy: QVQLVQSGAEVKKPGSSVKVSCKASGYTFTDYNMHWVRQAPGQGLEWIGYIYPYNGGTGYNQKFKSKATITADESTNTAYMELSSLRSEDTAVYYCARGRPAMDYWGQGTLVTVSSASTKGPSVFPLAPSSKSTSGGTAALGCLVKDYFPEPVTVSWNSGALTSGVHTFPAVLQSSGLYSLSSVVTVPSSSLGTQTYICNVNHKPSNTKVDKKVEPKSCHHHHHH |  |  |  |  |  |  |  | 6.98 | 10.4 | 3.3 | 3 | 1.31 |
| CD33 BRIDGE variant B35 (Fab, Lintuzumab-based Fab bridging molecule) light: DFPGHNYTTRNILPGLNITSTFHKTSGSGKGSEPKSSDKTHTGGGGSDIQMTQSPSSLSASVGDRVTITCRASESVDNYGISFMNWFQQKPGKAPKLLIYAASNQGSGVPSRFSGSGSGTDFTLTISSLQPDDFATYYCQQSKEVPWTFGQGTKVEIKRTVAAPSVFIFPPSDEQLKSGTASVVCLLNNFYPREAKVQWKVDNALQSGNSQESVTEQDSKDSTYSLSSTLTLSKADYEKHKVYACEVTHQGLSSPVTKSFNRGECHHHHHH heavy: QVQLVQSGAEVKKPGSSVKVSCKASGYTFTDYNMHWVRQAPGQGLEWIGYIYPYNGGTGYNQKFKSKATITADESTNTAYMELSSLRSEDTAVYYCARGRPAMDYWGQGTLVTVSSASTKGPSVFPLAPSSKSTSGGTAALGCLVKDYFPEPVTVSWNSGALTSGVHTFPAVLQSSGLYSLSSVVTVPSSSLGTQTYICNVNHKPSNTKVDKKVEPKSCHHHHHH |  |  |  |  |  |  |  | 6.62 | 9.88 | 5.4 | 3.8 | 2.15 |
| CD33 BRIDGE variant B36 (Fab, Lintuzumab-based Fab bridging molecule) light: DFPGHNYTTRNILPGLNITSTFHKTSGSGKGGGGSEPKSSDKTHTGGGGSDIQMTQSPSSLSASVGDRVTITCRASESVDNYGISFMNWFQQKPGKAPKLLIYAASNQGSGVPSRFSGSGSGTDFTLTISSLQPDDFATYYCQQSKEVPWTFGQGTKVEIKRTVAAPSVFIFPPSDEQLKSGTASVVCLLNNFYPREAKVQWKVDNALQSGNSQESVTEQDSKDSTYSLSSTLTLSKADYEKHKVYACEVTHQGLSSPVTKSFNRGECHHHHHH heavy: QVQLVQSGAEVKKPGSSVKVSCKASGYTFTDYNMHWVRQAPGQGLEWIGYIYPYNGGTGYNQKFKSKATITADESTNTAYMELSSLRSEDTAVYYCARGRPAMDYWGQGTLVTVSSASTKGPSVFPLAPSSKSTSGGTAALGCLVKDYFPEPVTVSWNSGALTSGVHTFPAVLQSSGLYSLSSVVTVPSSSLGTQTYICNVNHKPSNTKVDKKVEPKSCHHHHHH |  |  |  |  |  |  |  | 6.72 | 10 | 4.1 | 3.3 | 1.65 |
| CD33 PURIFIED BRIDGE (Fab, V domains shown, also called old variant; original E200 CD33 Fab bridging molecule derived from lintuzumab) VH: QVQLVQSGAEVKKPGSSVKVSCKASGYTFTDYNMHWVRQAPGQGLEWIGYIYPYNGGTGYNQKFKSKATITADESTNTAYMELSSLRSEDTAVYYCARGRPAMDYWGQGTLVTVSS VL: DIQMTQSPSSLSASVGDRVTITCRASESVDNYGISFMNWFQQKPGKAPKLLIYAASNQGSGVPSRFSGSGSGTDFTLTISSLQPDDFATYYCQQSKEVPWTFGQGTKVEIKR |  |  |  |  |  |  |  | 7.12 | 10.6 | 4 | 4 | 1.58 |
